# According to the supplement of paper PMC10126150:
# ± gives the standard deviation of the averaged measurements.
# System: ATP
# Experiment: switch fluorescence ratio, 500 uM ATP over buffer (Cy3 cluster intensity, sum of 5 cycles each) (fold (ratio)); higher = stronger signal-on switching upon ATP binding; sequences stand for … in TCGTCGGCAGCGTCAGATGTGTATAAGAGACAGTTTTTTTTTTTTTTTTTTTTTTTTT…TC
# Conditions: aptamer strand: ATP DNA aptamer (quencher-CACCTGGGGGAGTATTGCGGAGGAAGG + anchor), 100 nM annealed; ATP concentration: 500 uM
# Summary of the method: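 Per cluster, summed Cy3 intensity from the target cycles was divided by that from the buffer cycles to give the fluorescence ratio, then averaged per switch-domain sequence. Clusters outside 100-1000 RFU were excluded. The Cy3-labelled switching-strand clusters, on a modified Illumina MiSeq flow-cell, were annealed to 100 nM quencher-labelled ATP aptamer and imaged in selection buffer, then after 15 min with 500 uM ATP at 22 °C, for five cycles with NaOH stripping and re-annealing between them.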
# 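Further: ATP exposure 15 min at 22 °C before imaging.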
row,Sequence,switch fluorescence ratio
1,CGAAGCTTAT,2.74 ± 0.53
2,AGCGGGGGTG,1.02 ± 0.018
3,GTAAGGGGTC,1 ± 0.028
4,AAGGAAGACA,0.995 ± 0.03
5,TCTTGTGG,0.982 ± 0.012
6,CTGTTTTTTG,0.976 ± 0.03
7,CAATATCTCC,2.29 ± 0.16
8,CGTTCAGCGG,0.996 ± 0.023
9,ATTAATTCCG,1.02 ± 0.0097
10,TAGGAGTTAG,1 ± 0.047
11,TACTTAGGTT,0.98 ± 0.024
12,CGGTTCTCTC,1.02 ± 0.013
13,AGCAAATATA,1.058 ± 0.0057
14,TTTTGATGAG,0.987 ± 0.021
15,GGGGGGTAGG,1.01 ± 0.029
16,CGGAACAGTT,1.02 ± 0.024
17,GCCAATGGGC,1 ± 0.051
18,CTTAAATTTA,1.02 ± 0.022
19,CCGCTTTGTT,1.24 ± 0.072
20,TTTTGAGTT,0.986 ± 0.076
21,GGGGAAGGAG,0.977 ± 0.029
22,TGGATGATTG,0.984 ± 0.022
23,ATTTGTTGCA,1.0298 ± 0.00091
24,GCTTGAGTAC,0.992 ± 0.037
25,CATCAAAAAT,1.29 ± 0.3

row,Sequence,switch fluorescence ratio
1,TAAGAAGGGT,0.991 ± 0.024
2,CCTAGGATTC,1.01 ± 0.043
3,GTGCGATGTA,1.02 ± 0.031
4,GATTGAGGTC,0.989 ± 0.037
5,CGTGGCAGCA,1.0326 ± 3.9e-05
6,TATGGGTACG,1.01 ± 0.016
7,TTGTTAGGTG,1.132 ± 0.0016
8,ACTGGGGTCT,1.01 ± 0.026
9,CACTAGGCGG,1.0232 ± 0.00067
10,ATGGTGACGG,0.9765 ± 0.0034
11,GGCCCCGGGT,1.18 ± 0.057
12,TCGACCGGGG,1.039 ± 0.0098
13,GAATTGCGGG,1.02 ± 0.087
14,TAGGGGTAGT,1.01 ± 0.033
15,GGGACAATGA,1 ± 0.038
16,GCTTCGGGCC,0.991 ± 0.015
17,CATACAATGC,2.02 ± 0.11
18,TTTAATGGAA,0.988 ± 0.012
19,ATAGTGGTGC,0.958 ± 0.067
20,GCGGTTTCGG,0.994 ± 0.024
21,GAATTTTTTG,0.988 ± 0.012
22,GGTAAGGGGA,0.991 ± 0.033
23,GGTGTACCGG,1.004 ± 0.0092
24,CCCATGCGTT,1.03 ± 0.063
25,AGCAGAAATT,1.02 ± 0.054

row,Sequence,switch fluorescence ratio
1,TAGTTGGATT,0.972 ± 0.038
2,TAAGTACGGC,1.31 ± 0.02
3,GGCAGAATGA,1 ± 0.018
4,GGGGCTTGCA,1.02 ± 0.019
5,AATTCTCTGT,1.03 ± 0.066
6,TGTTCCGGGG,1.013 ± 0.0063
7,ACATGGGGA,1.002 ± 0.0018
8,TAGTGTTGGG,0.9837 ± 0.0015
9,AGTTCGTAGA,0.966 ± 0.048
10,TTCATTGAGT,1.028 ± 0.0048
11,TAATATTCGA,0.995 ± 0.018
12,TTAAGGTGTA,1.1 ± 0.064
13,TCTTAGGACG,0.997 ± 0.036
14,AAAAGGAACT,1.04 ± 0.044
15,GTTTTCAGCG,1.01 ± 0.022
16,GTCGGGGGAT,1.02 ± 0.014
17,TATTGAAGAG,1.008 ± 0.0076
18,TTCTTGGCGG,1 ± 0.07
19,AGGAGCTGAA,0.987 ± 0.021
20,GCGAGAGGAT,0.985 ± 0.028
21,CTTTGTGATA,1.04 ± 0.025
22,TGTTGTCAAG,1.01 ± 0.026
23,AGAGATATTT,0.992 ± 0.029
24,TTTCATAGCA,1.283 ± 0.012
25,ATGTAATATG,0.992 ± 0.024

row,Sequence,switch fluorescence ratio
1,AATCGGGCTG,0.962 ± 0.042
2,TTGTTTTTTG,1.01 ± 0.034
3,AAATCTCGGA,1.2 ± 0.31
4,ACGGGGGTGT,0.984 ± 0.024
5,TCAAGATAGG,1.014 ± 0.0028
6,GCTGTTTACG,1.03 ± 0.031
7,GTGGGTTGTG,0.978 ± 0.04
8,AGGGTAATCA,0.993 ± 0.03
9,AAATCGTGGA,0.987 ± 0.011
10,GGTTAGGGAC,1.04 ± 0.04
11,GTCCGGGGTT,0.994 ± 0.021
12,CTGGTAGGGT,1.02 ± 0.02
13,GCATTGGGGT,0.994 ± 0.012
14,GCTGTTGGAA,0.985 ± 0.012
15,GTTGGGATTG,1.01 ± 0.013
16,GGCGGGGTGG,1.09 ± 0.12
17,CGAGGATAAC,1.03 ± 0.043
18,CAAGTAAAAG,1.01 ± 0.011
19,CGGGTTGTTA,0.9951 ± 0.0081
20,CCGGGAGAAA,1.28 ± 0.02
21,CAGATTGCTC,0.982 ± 0.037
22,CTAATTTACG,1.06 ± 0.028
23,GTAATCTCAG,0.997 ± 0.022
24,TGACCTGCAC,1.51 ± 0.034
25,TTATTCTGCT,1.03 ± 0.03
